According to article PMC10140725 (Scientific Reports, 2023):

Experiments:
[1] = target: hemagglutinin (HA) of H1N1 influenza A strain A/Almaty/32/1998, mature HA1/HA2 trimer (Influenza A virus H1N1, strain A/Almaty/32/1998); assay: crystal structure
[2] = target: hemagglutinin (HA) of H1N1 influenza A strain A/Jiangsu/ALS1/2011, mature HA1/HA2 trimer (Influenza A virus H1N1, strain A/Jiangsu/ALS1/2011); assay: crystal structure

Substance | stoichiometry N [1] | stoichiometry N [2]
hemagglutinin (HA) of H1N1 influenza A strain A/Almaty/32/1998, mature HA1/HA2 trimer (natural protein) | 3 | 
hemagglutinin (HA) of H1N1 influenza A strain A/Jiangsu/ALS1/2011, mature HA1/HA2 trimer (natural protein) |  | 3
